# Reference: patent US20190360025A1
# Columns and labels:
# [1] = biological target: tumor necrosis factor alpha (TNF-α), R&D Systems 210-TA-005 (UniProt P01375); assay: c-PLA 1X probes, buffer; TNF-α 1.00E-10 M
# [2] = biological target: tumor necrosis factor alpha (TNF-α), R&D Systems 210-TA-005 (UniProt P01375); assay: c-PLA 10X probes, human plasma; TNF-α 5.00E-07 M
# [3] = biological target: tumor necrosis factor alpha (TNF-α), R&D Systems 210-TA-005 (UniProt P01375); assay: c-PLA 10X probes, buffer; TNF-α 1.00E-10 M
# [4] = biological target: tumor necrosis factor alpha (TNF-α), R&D Systems 210-TA-005 (UniProt P01375); assay: SPR (Biacore T200), 1:1 global fit
# [5] = biological target: tumor necrosis factor alpha (TNF-α), R&D Systems 210-TA-005 (UniProt P01375); assay: c-PLA 1X probes, buffer; TNF-α 1.00E-09 M
# [6] = biological target: tumor necrosis factor alpha (TNF-α), R&D Systems 210-TA-005 (UniProt P01375); assay: t-PLA 1X probes, buffer; TNF-α 1.00E-09 M
# [7] = biological target: tumor necrosis factor alpha (TNF-α), R&D Systems 210-TA-005 (UniProt P01375); assay: t-PLA 1X probes, buffer; TNF-α 5.00E-07 M
# [8] = biological target: tumor necrosis factor alpha (TNF-α), R&D Systems 210-TA-005 (UniProt P01375); assay: t-PLA 10X probes, buffer; TNF-α 5.00E-07 M
# [9] = biological target: vascular endothelial growth factor (VEGF), R&D Systems 293-VE-010 (human) (UniProt P15692); assay: c-PLA, human plasma; VEGF 1.00E-10 M
# [10] = biological target: vascular endothelial growth factor (VEGF), R&D Systems 293-VE-010 (human) (UniProt P15692); assay: c-PLA with preamplification; VEGF 1.00E-12 M
# [11] = biological target: vascular endothelial growth factor (VEGF), R&D Systems 293-VE-010 (human) (UniProt P15692); assay: t-PLA, buffer; VEGF 1.00E-08 M
# [12] = biological target: vascular endothelial growth factor (VEGF), R&D Systems 293-VE-010 (human) (UniProt P15692); assay: t-PLA, human plasma; VEGF 1.00E-12 M
# [13] = biological target: vascular endothelial growth factor (VEGF), R&D Systems 293-VE-010 (human) (UniProt P15692); assay: t-PLA, chicken plasma; VEGF 1.00E-08 M
# [14] = biological target: vascular endothelial growth factor (VEGF), R&D Systems 293-VE-010 (human) (UniProt P15692); assay: t-PLA with preamplification; VEGF 1.00E-11 M
# [15] = biological target: vascular endothelial growth factor (VEGF), R&D Systems 293-VE-010 (human) (UniProt P15692); assay: c-PLA with preamplification; VEGF 1.00E-08 M
# [16] = biological target: vascular endothelial growth factor (VEGF), R&D Systems 293-VE-010 (human) (UniProt P15692); assay: c-PLA, chicken plasma; VEGF 1.00E-09 M
# [17] = biological target: vascular endothelial growth factor (VEGF), R&D Systems 293-VE-010 (human) (UniProt P15692); assay: c-PLA, buffer; VEGF 1.00E-10 M
# [18] = biological target: vascular endothelial growth factor (VEGF), R&D Systems 293-VE-010 (human) (UniProt P15692); assay: t-PLA, human plasma; VEGF 1.00E-08 M
# [19] = biological target: vascular endothelial growth factor (VEGF), R&D Systems 293-VE-010 (human) (UniProt P15692); assay: t-PLA with preamplification; VEGF 1.00E-12 M
# [20] = biological target: vascular endothelial growth factor (VEGF), R&D Systems 293-VE-010 (human) (UniProt P15692); assay: SPR (Biacore T200), 1:1 global fit
# [21] = biological target: vascular endothelial growth factor (VEGF), R&D Systems 293-VE-010 (human) (UniProt P15692); assay: t-PLA with preamplification; VEGF 1.00E-10 M
# [22] = biological target: vascular endothelial growth factor (VEGF), R&D Systems 293-VE-010 (human) (UniProt P15692); assay: t-PLA, buffer; VEGF 1.00E-12 M
# [23] = biological target: vascular endothelial growth factor (VEGF), R&D Systems 293-VE-010 (human) (UniProt P15692); assay: c-PLA, chicken plasma; VEGF 1.00E-14 M
# [24] = biological target: vascular endothelial growth factor (VEGF), R&D Systems 293-VE-010 (human) (UniProt P15692); assay: c-PLA, buffer; VEGF 1.00E-13 M
# [25] = biological target: vascular endothelial growth factor (VEGF), R&D Systems 293-VE-010 (human) (UniProt P15692); assay: c-PLA, human plasma; VEGF 1.00E-14 M
# [26] = biological target: vascular endothelial growth factor (VEGF), R&D Systems 293-VE-010 (human) (UniProt P15692); assay: t-PLA, buffer; VEGF 1.00E-13 M
# [27] = biological target: vascular endothelial growth factor (VEGF), R&D Systems 293-VE-010 (human) (UniProt P15692); assay: t-PLA, chicken plasma; VEGF 1.00E-11 M
# [28] = biological target: vascular endothelial growth factor (VEGF), R&D Systems 293-VE-010 (human) (UniProt P15692); assay: c-PLA, chicken plasma; VEGF 1.00E-08 M
# Sequence of UniProt P01375 (P01375 77-233 limits assumed): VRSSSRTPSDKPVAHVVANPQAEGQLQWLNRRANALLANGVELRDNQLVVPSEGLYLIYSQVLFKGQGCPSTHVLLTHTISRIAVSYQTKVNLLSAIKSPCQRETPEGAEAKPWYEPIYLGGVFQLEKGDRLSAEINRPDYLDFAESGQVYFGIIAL
# Sequence of UniProt P15692 (P15692 other isoform, or with tags, fused parts or gaps limits assumed): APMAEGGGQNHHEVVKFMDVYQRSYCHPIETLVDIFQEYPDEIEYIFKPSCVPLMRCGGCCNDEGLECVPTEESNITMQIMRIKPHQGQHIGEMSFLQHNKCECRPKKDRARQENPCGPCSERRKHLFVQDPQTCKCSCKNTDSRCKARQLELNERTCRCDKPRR
substance,measurement,setting,value
affinity-purified polyclonal anti-TNF-α antibody (R&D Systems AF-210-NA),Counts,[1],260
same,Counts,[2],495000
same,SBR,[2],230
same,Counts,[3],4620
same,Kd,[4],0.279 nM
same,Counts,[5],3700
same,SBR,[5],232
same,Counts,[6],1.98e+07
same,Counts,[7],1.33e+08
same,Counts,[8],2.24e+09
same,SBR,[8],392
affinity-purified polyclonal anti-VEGF antibody (R&D Systems AF-293-NA),Counts,[9],13800
same,SBR,[9],53
same,Counts,[10],516000
same,SBR,[10],8.7
same,Counts,[11],2.5e+09
same,SBR,[11],7230
same,Counts,[12],2.06e+06
same,SBR,[12],1.3
same,Counts,[13],1.49e+08
same,SBR,[13],2230
same,Counts,[14],1.26e+07
same,SBR,[14],71
same,Counts,[15],8.14e+07
same,SBR,[15],1370
same,Counts,[16],73600
same,SBR,[16],7980
same,Counts,[17],95900
same,SBR,[17],3230
same,Counts,[18],8.23e+07
same,SBR,[18],51
same,Counts,[19],1.26e+06
same,SBR,[19],7.1
same,Kd,[20],0.0036 nM
same,Counts,[21],1.78e+08
same,SBR,[21],1010
same,Counts,[22],3.69e+06
same,SBR,[22],11
same,Counts,[23],10.7
same,SBR,[23],1.2
same,Counts,[24],272
same,SBR,[24],9.1
same,Counts,[25],292
same,SBR,[25],1.1
same,Counts,[26],1.61e+06
same,Counts,[27],7.94e+06
same,SBR,[27],119
same,Counts,[28],40800
same,SBR,[28],4420
